Assay results: US20050048070A1 (published 2005)

Assays:
[1] = target: T1, K8(300-483)/intact K18 heterotypic complex; assay: summary map of the heterotypic association assay: GST deletion protein incubated with the complementary keratin, then stained with COU-1
T1 construct: one member of the group m25; not shown: N-terminal GST carrier (modified pGEX-2T) and its linker on the keratin constructs
T1 chain 1: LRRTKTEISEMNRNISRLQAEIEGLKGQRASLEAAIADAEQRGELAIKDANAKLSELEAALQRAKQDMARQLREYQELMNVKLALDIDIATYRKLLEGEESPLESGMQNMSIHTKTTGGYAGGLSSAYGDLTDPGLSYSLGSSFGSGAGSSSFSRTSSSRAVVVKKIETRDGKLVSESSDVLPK
T1 chain 2: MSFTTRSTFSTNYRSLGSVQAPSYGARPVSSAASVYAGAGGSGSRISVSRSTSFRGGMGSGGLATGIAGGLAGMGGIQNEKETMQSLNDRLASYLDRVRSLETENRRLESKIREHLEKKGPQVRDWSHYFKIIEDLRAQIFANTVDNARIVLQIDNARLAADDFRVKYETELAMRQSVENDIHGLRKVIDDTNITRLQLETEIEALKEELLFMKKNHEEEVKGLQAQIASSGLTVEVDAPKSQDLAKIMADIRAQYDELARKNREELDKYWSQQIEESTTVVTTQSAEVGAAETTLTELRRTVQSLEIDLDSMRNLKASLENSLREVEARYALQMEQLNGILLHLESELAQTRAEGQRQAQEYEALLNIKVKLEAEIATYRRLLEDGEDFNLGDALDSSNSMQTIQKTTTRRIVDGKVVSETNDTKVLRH

[2] = target: T2, K8(130-483)/intact K18 heterotypic complex; assay: as above
T2 construct: one member of the group m25; not shown: GST fusion partner (modified pGEX-2T) on the keratin proteins
T2 K8 fragment: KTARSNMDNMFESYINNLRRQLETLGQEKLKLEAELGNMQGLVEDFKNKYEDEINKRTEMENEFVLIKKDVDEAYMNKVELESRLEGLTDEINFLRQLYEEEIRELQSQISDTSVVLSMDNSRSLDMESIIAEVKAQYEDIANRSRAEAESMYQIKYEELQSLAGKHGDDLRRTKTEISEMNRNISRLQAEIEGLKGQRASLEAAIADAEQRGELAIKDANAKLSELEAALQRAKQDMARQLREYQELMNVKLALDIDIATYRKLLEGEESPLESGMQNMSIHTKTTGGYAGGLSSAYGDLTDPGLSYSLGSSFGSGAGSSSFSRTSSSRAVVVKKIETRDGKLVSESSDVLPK
T2 K18 intact: T1 chain 2

[3] = target: T3, K8(1-65)/intact K18 heterotypic complex (human, UniProt P05787 2-66; P05783 2-430); assay: as above
T3 construct: Heterotypic complex of two GST fusion proteins; not shown: glutathione S-transferase (GST) fusion partner, modified pGEX-2T vector
T3 sequence 1: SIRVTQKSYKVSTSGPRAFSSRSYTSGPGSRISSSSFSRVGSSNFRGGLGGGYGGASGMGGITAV
T3 sequence 2: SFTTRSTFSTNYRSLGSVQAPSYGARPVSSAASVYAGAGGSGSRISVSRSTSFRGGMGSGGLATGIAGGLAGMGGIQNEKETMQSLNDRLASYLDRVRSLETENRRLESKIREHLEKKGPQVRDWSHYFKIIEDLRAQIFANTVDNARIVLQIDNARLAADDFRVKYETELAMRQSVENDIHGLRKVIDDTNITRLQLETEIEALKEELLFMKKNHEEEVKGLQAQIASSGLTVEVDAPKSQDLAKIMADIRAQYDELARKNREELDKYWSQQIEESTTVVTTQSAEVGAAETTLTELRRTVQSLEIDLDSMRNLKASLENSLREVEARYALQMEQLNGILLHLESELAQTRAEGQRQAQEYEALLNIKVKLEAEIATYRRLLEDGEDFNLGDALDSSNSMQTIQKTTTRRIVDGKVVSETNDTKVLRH

[4] = target: T4, intact K8/K18(1-72) heterotypic complex (human, UniProt P05787 2-483; P05783 2-73); assay: as above
T4 construct: Heterotypic complex of two GST fusion proteins; also called K18(1-72)/intact K8; not shown: glutathione S-transferase (GST) fusion partner, modified pGEX-2T vector
T4 chain 1: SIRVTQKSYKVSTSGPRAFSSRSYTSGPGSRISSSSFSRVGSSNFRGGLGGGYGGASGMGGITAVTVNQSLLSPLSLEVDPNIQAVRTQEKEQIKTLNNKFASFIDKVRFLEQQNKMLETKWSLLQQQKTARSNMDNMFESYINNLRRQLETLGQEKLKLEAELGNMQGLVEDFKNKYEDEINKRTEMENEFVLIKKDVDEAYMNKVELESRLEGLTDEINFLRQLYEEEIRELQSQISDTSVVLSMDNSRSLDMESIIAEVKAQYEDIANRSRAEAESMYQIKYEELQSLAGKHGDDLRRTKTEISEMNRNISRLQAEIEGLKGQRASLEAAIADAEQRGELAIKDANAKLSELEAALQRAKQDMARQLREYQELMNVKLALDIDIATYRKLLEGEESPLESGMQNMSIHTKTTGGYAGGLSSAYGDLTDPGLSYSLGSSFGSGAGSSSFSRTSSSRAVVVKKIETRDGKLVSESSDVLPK
T4 chain 2: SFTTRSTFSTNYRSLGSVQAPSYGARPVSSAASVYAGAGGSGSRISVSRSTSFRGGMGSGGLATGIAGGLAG

[5] = target: T5, K8(1-85)/K18(1-124) heterotypic complex (human, UniProt P05787 2-86; P05783 2-125); assay: heterotypic association assay: blotted K8 proteins incubated with purified K18(1-124), then stained with COU-1
T5 construct: Heterotypic complex of two GST fusion proteins; not shown: glutathione S-transferase (GST) fusion partner, modified pGEX-2T vector

[6] = target: T6, K8(1-85)/K18(1-213) heterotypic complex (human, UniProt P05787 2-86; P05783 2-214); assay: heterotypic association assay: blotted K8 proteins incubated with purified K18(1-213), then stained with COU-1
T6 construct: Heterotypic complex of two GST fusion proteins; not shown: glutathione S-transferase (GST) fusion partner, modified pGEX-2T vector
T6 chain 1: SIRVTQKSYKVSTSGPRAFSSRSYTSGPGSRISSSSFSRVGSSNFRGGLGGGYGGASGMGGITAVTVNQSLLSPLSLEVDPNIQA
T6 chain 2: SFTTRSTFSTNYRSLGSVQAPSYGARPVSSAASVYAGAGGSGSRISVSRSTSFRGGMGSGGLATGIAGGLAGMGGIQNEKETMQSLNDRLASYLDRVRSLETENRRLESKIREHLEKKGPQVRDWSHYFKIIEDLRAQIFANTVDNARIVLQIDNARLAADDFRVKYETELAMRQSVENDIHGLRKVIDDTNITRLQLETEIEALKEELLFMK

B1: human monoclonal IgM antibody COU-1 (antibody, V domains shown)
VH: GAEVKKPGASVKVSCKASDYTFSSYYMHWVRQAPGQGLEWMGIINPSGGSTSYAQKFQGRVTMTRDTSTNTVYMELSSLRSEDTAVYYCARDQVVVAATLSNYGMDVWGQGTTVTVSS
VL: ELTQSPGTLSLSPGERATLSCRASQSVSSSYLAWYQQKPGQAPRLLIYDASNRATGIPARFSGSGSGTDFTLTISSLEPEDFAVYYCQQGTNWGIAFGQGTRLDIKR
notes: Human IgM with kappa light chain, secreted by hybridoma B9165 (ECACC 87040201), purified from culture supernatant; also called HMab COU-1; HuMab COU-1
- binding result [1]: no binding (tested: 5 µg/ml COU-1 (P-0285))
- binding result [2]: no binding (tested: 5 µg/ml COU-1 (P-0285))
- binding result [3]: no binding (tested: 5 µg/ml COU-1 (P-0285))
- binding result [4]: no binding (tested: 5 µg/ml COU-1 (P-0285))
- binding result [5]: no binding (tested: 5 µg/ml COU-1 (P-0285))
- binding result [6]: no binding (tested: 5 µg/ml COU-1 (P-0285))
